Results reported in paper PMC10857128.

How the values were obtained:
[1] = target: peppermint root-type ferredoxin NADP+ reductase (R-FNR) (Mentha × piperita (peppermint))
[2] = target: peppermint leaf-type ferredoxin NADP+ reductase (L-FNR) (Mentha × piperita (peppermint))
[3] = target: peppermint root-type ferredoxin NADP+ reductase (R-FNR) (Mentha × piperita (peppermint)); remark: listed apart in the source

Km^Fd, FNR–Fd-dependent cytochrome c reduction (NADPH-dependent cytochrome c reductase assay, Fd varied 0.3-20 µM, 30 °C, 50 mM Tris pH 7.5) [1] [µM]	kcat, FNR–Fd-dependent cytochrome c reduction (NADPH-dependent cytochrome c reductase assay, Fd varied 0.3-20 µM, 30 °C, 50 mM Tris pH 7.5) [1] [s^−1]	kcat/Km^Fd, FNR–Fd-dependent cytochrome c reduction (NADPH-dependent cytochrome c reductase assay, Fd varied 0.3-20 µM, 30 °C, 50 mM Tris pH 7.5) [1] [µM^−1s^−1]	Km^Fd, FNR–Fd-dependent cytochrome c reduction (NADPH-dependent cytochrome c reductase assay, Fd varied 0.3-20 µM, 30 °C, 50 mM Tris pH 7.5) [2] [µM]	kcat, FNR–Fd-dependent cytochrome c reduction (NADPH-dependent cytochrome c reductase assay, Fd varied 0.3-20 µM, 30 °C, 50 mM Tris pH 7.5) [2] [s^−1]	kcat/Km^Fd, FNR–Fd-dependent cytochrome c reduction (NADPH-dependent cytochrome c reductase assay, Fd varied 0.3-20 µM, 30 °C, 50 mM Tris pH 7.5) [2] [µM^−1s^−1]	Km value for Fd III as told in the text, NADPH-dependent cytochrome c reductase assay (differs from the cell of Table 2) [3] [µM]	Substance
3.6	281	78.3	2.3	125	54.2	–	peppermint leaf-type ferredoxin (Fd I) (natural protein)
1.9	428	222	2.8	304	109	–	peppermint root-type ferredoxin (Fd II) (natural protein)
2.3	428	189	2.9	286	98.1	2.1	peppermint root-type ferredoxin (Fd III) (natural protein)
